The values below come from patent US8822640B2, “Tetrameric streptavidin mutein with reversible biotin binding capability” (UTI Limited Partnership, priority 2011, dated 2014).

Assay [1] in a line: Biotin binding data taken from literature / U.S. Pat. No. 6,312,916 B1. The settings on record: for t1/2, half-life of biotin in the SAV-biotin complex: estimated as 0.693/koff/60 from the cited koff.
For assay [2], the system named is biotinylated protein G and biotinylated IgG. In words: Mutein-agarose affinity matrix: purification of biotinylated proteins, matrix stability and reuse. The settings on record: comparison of FIGS. 7 and 10. Here is the method: Other methods. BIAcore biosensor for determining the kinetic parameters, preparation of streptavidin-agarose matrix and purification of biotinylated proteins were performed as previously described (Wu and Wong, 2005a; Wu and Wong, 2005b).
Stable subunit interactions in the 8-aa-loop-H127 mutein. The purified 8-aa-loop-H127C mutein can be immobilized to the agarose matrix with an estimated concentration of 3.8 mg/ml of settled agarose beads. […] Since it is likely that only one subunit in an tetrameric 8-aa-loop-H127C mutein was chemically coupled to the matrix (the other three subunits associated with the immobilized subunit via non-covalent interactions), this observation illustrates that the subunit interactions between the subunits in the tetrameric 8-aa-loop-H127C mutein were stable enough and the non-covalently associated subunits were not washed off from the column under the conditions used for the binding, washing and elution processes.
Application of the 8-aa-loop-H127C mutein-agarose matrices for purification of biotinylated protein G and biotinylated IgG. […] The bound biotinylated proteins could be eluted off from the column using 4 mM biotin (FIGS. 7 and 8).

The conditions of assay [3]: data from U.S. Pat. No. 6,312,916 B1, cited from earlier work.

B1: SAV mutein from Roche: commercially available streptavidin mutein with reversible biotin binding, changes S27R, S45R and L110W (U.S. Pat. No. 6,312,916 B1) (protein)
chain: AEAGITGTWYNQLGRTFIVTAGADGALTGTYERAVGNAESRYVLTGRYDSAPATDGSGTALGWTVAWKNNYRNAHSATTWSGQYVGGAEARINTQWLWTSGTTEANAWKSTLVGHDTFTKVKPSAAS
B1: the “t1/2, half-life of biotin in the SAV-biotin complex” value is on record as 1.96 min in assay [1] and 1.9 min in assay [1] (listed as Roche mutein). Moreover, the “biotin binding affinity lower than that of the 8-aa-loop-H127C mutein” value in assay [1] (ratio of Kd values) is listed as approximately 10 fold. For the same molecule, in assay [1] (ratio of t1/2 values), the “half-life of biotin in the SAV-biotin complex shorter than that of the 8-aa-loop-H127C mutein” value was approximately 14 fold. For the same molecule, the “binding capacity of the matrix for biotinylated protein G” value in assay [2] is given as “significantly less than that of the 8-aa-loop-H127C mutein”. Moreover, the ka or kon in assay [3] is 45000 M⁻¹ s⁻¹. The kd or koff in assay [3] is 0.0059 s⁻¹. Moreover, the Kd in assay [3] (read-out: Kd (biotin binding affinity)) was 130 nM.
